In patent publication US20230340137A1 (published 2023):

Molecular target: T1, B-cell maturation antigen (BCMA) (human, UniProt Q02223 1-184)
T1 sequence (looked up): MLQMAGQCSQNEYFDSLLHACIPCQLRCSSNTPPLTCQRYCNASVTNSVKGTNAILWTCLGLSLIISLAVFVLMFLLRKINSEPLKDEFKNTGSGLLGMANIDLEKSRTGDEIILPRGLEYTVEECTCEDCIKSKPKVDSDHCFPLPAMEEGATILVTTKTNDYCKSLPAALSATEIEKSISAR
Assay: cell-based or functional assay

B1: PF-06863135 (bispecific antibody, human IgG2)
heavy 1: EVQLLESGGGLVQPGGSLRLSCAASGFTFSSYPMSWVRQAPGKGLEWVSAIGGSGGSLPYADIVKGRFTISRDNSKNTLYLQMNSLRAEDTAVYYCARYWPMDIWGQGTLVTVSSASTKGPSVFPLAPCSRSTSESTAALGCLVKDYFPEPVTVSWNSGALTSGVHTFPAVLQSSGLYSLSSVVTVPSSNFGTQTYTCNVDHKPSNTKVDKTVERKCEVECPECPAPPVAGPSVFLFPPKPKDTLMISRTPEVTCVVVAVSHEDPEVQFNWYVDGVEVHNAKTKPREEQFNSTFRVVSVLTVVHQDWLNGKEYKCKVSNKGLPSSIEKTISKTKGQPREPQVYTLPPSREEMTKNQVSLTCEVKGFYPSDIAVEWESNGQPENNYKTTPPMLDSDGSFFLYSKLTVDKSRWQQGNVFSCSVMHEALHNHYTQKSLSLSPGK
light 1: EIVLTQSPGTLSLSPGERATLSCRASQSVSSSYLAWYQQKPGQAPRLLMYDASIRATGIPDRFSGSGSGTDFTLTISRLEPEDFAVYYCQQYQSWPLTFGQGTKVEIKRTVAAPSVFIFPPSDEQLKSGTASVVCLLNNFYPREAKVQWKVDNALQSGNSQESVTEQDSKDSTYSLSSTLTLSKADYEKHKVYACEVTHQGLSSPVTKSFNRGEC
heavy 2: EVQLVESGGGLVQPGGSLRLSCAASGFTFSDYYMTWVRQAPGKGLEWVAFIRNRARGYTSDHNPSVKGRFTISRDNAKNSLYLQMNSLRAEDTAVYYCARDRPSYYVLDYWGQGTTVTVSSASTKGPSVFPLAPCSRSTSESTAALGCLVKDYFPEPVTVSWNSGALTSGVHTFPAVLQSSGLYSLSSVVTVPSSNFGTQTYTCNVDHKPSNTKVDKTVERKCRVRCPRCPAPPVAGPSVFLFPPKPKDTLMISRTPEVTCVVVAVSHEDPEVQFNWYVDGVEVHNAKTKPREEQFNSTFRVVSVLTVVHQDWLNGKEYKCKVSNKGLPSSIEKTISKTKGQPREPQVYTLPPSREEMTKNQVSLTCLVKGFYPSDIAVEWESNGQPENNYKTTPPMLDSDGSFFLYSRLTVDKSRWQQGNVFSCSVMHEALHNHYTQKSLSLSPGK
light 2: not shown
For B1, the “EC50 of cell viability (killing) of H929-Luc cells co-cultured with human CD3+ T cells, 72 hr, luminescence; with GSI” value was 5.5 pM, the “EC50 of cell viability (killing) of H929-Luc cells co-cultured with human CD3+ T cells, 72 hr, luminescence; without GSI” value was 167 pM and the “EC50 of cell viability (killing) of Molp8-Luc cells co-cultured with human CD3+ T cells, 72 hr, luminescence; with GSI” value was 20.2 pM. The “EC50 of cell viability (killing) of Molp8-Luc cells co-cultured with human CD3+ T cells, 72 hr, luminescence; without GSI” value was 108 pM, the “EC50 of cell viability (killing) of OPM2-Luc cells co-cultured with human CD3+ T cells, 72 hr, luminescence; with GSI” value was 3.3 pM and the “EC50 of cell viability (killing) of OPM2-Luc cells co-cultured with human CD3+ T cells, 72 hr, luminescence; without GSI” value was 52.8 pM. For the same binder, the “EC50 of cell viability (killing) of RPMI8226-Luc cells co-cultured with human CD3+ T cells, 72 hr, luminescence; with GSI” value was 1.7 pM and the “EC50 of cell viability (killing) of RPMI8226-Luc cells co-cultured with human CD3+ T cells, 72 hr, luminescence; without GSI” value was 9.2 pM.
